Assays:
[1] = test system: tracheal smooth muscle (TSM) of mouse tracheal rings; experiment: ISO-induced relaxation of CCh-contracted tracheal rings; format: cell-based; settings: in either presence or absence of rFIZZ1
Protocol: (§1) Experimental animals were sacrificed by CO2 asphyxiation. Tracheas were surgically excised and cleaned of adherent connective tissue. Each trachea was sectioned into rings 3-4 mm in length and cultured in DMEM containing 1.0 M HEPES, 1.0 M NaOH, 5% of heat-inactivated FBS (Hy-Clone, Logan, Utah), 0.2M glutamine, 1.0 M CaCl2, 2.5 μg/ml fungizone, 5 μg/mL insulin, 100 U/mL penicillin and 100 μg/mL streptomycin) (DMEM-5%) for 24 hours. For in vitro experiments, the tracheal rings were cultured in DMEM in the absence and presence of either 10 or 100 nM recombinant FIZZ1 (Leinco Technologies, USA) for 24 hours.
(§2) Trachea were supported longitudinally by a plexiglas rod with a stainless steel pin into the base of a double-jacketed, glass organ bath filled with 10 mL of Krebs-Henseleit (K-H) solution (37° C.) of the following composition: 118 mM NaCl; 4.7 mM KCl; 1.2 mM KH2PO4; 11.1 mM Dextrose; 1.2 mM MgSO4; 2.8 mM CaCl2; and 25 mM NaHCO3. The solution was maintained at a pH of 7.40-7.45 and continuously gassed with a mixture of 5% CO2 and […] for the duration of each experiment. […] Initial tensions of TSM were set at approximately 0.5 g and maintained for 1 hour. Agonists were given after a steady state of tension had been reached.
[CCh]-response curves at the doses ranging from 3×10^−8 to 10^−5 M were completed in tracheal rings in absence and presence of either FIZZ1 or LPS (0.1 ng/mL). Concentrations of agonist were increased only when force responses to the previous concentration had stabilized. To examine TSM relaxant responses to isoprenaline (ISO), tracheal rings were first contracted by an addition of 1.0 μM CCh (Sigma, USA). Once the contraction had stabilized, ISO (Sigma, USA) was introduced into each bath at increasing concentrations (3×10^−8-10^−5 M). […]
(§3) At the end of each force measurement experiment, tracheas were blotted on a gauze pad and weighted. Results were calculated as milligram of tension per milligram of TSM weight (mg/mg) and expressed as an individual percentage (%) of 10 μM CCh- or 200 μM papaverine-induced tension response in PBS-treated trachea. […]

[2] = test system: mouse tracheal epithelium cells (MTEC); experiment: Nitrite in MTEC supernatants, Griess reaction; format: cell-based; settings: PBS, 0.1 ng/mL LPS or 100 nM rFIZZ1; any measured time point; N=3
Protocol: MTEC culture was performed by following the protocol of You et al. (“Growth and differentiation of mouse tracheal epithelial cells: selection of a proliferative population,” Am J Physiol Lung Cell Mol Physiol, 2002, 283:L 1315-1321) with minor modification. Briefly, tracheas were incubated in 1.5 mg/mL pronase (Roche Molecular Biochemicals) for 18 h at 4° C. Cells were treated with 0.5 mg/mL crude pancreatic DNase I (Sigma-Aldrich) on ice for 5 min. After incubation in tissue culture plates for 3-4 h in 5% CO2 at 37° C., nonadherent cells were incubated in a plate coated with type I rat tail collagen (BD Biosciences) in modified BEBM (Lonza, Md. USA) containing 10 μg/ml insulin, 5 μg/ml transferrin, 25 ng/ml epidermal growth factor, 5 μg/ml epinephrine and 30 μg/ml bovine pituitary extract, 0.5 nM Hydrocortisone, 25 ng/ml hEGF, 15 nM Triiodothyronine, 0.25 μg/ml Gentamicin/amphotericin-B and 0.01 μM retinoic acid in 5% CO2 at 37° C. […]
Nitric oxide (NO) was examined by measuring an end product, nitrite, using the Griess reaction (Xu et al., “Arginase and autoimmune inflammation in the central nervous system,” Immunology, 2003; 110:141-148). […] Absorbance was read at 540 nm in an automated microplate reader. […]

[3] = test system: TSM of fresh tracheal rings; experiment: Force response of fresh tracheas from intranasally challenged mice; format: in vivo, mouse; settings: intranasal once a day×5 days, 100 nM rFIZZ1 or 0.1 ng/ml LPS; 24 hours after last treatment; PBS 100.00±14.63; N=5
Protocol: (§4) For some experiments, ex vivo TSM tensions of fresh tracheal rings and BAL cell counts were measured at 24 hours after the last treatment of mice receiving an intranasal dose of either PBS, 0.1 ng/m: LPS or 100 nM rFIZZ1 (once a day×5 days).
as §2
(§5) At the end of each force measurement experiment, tracheas were blotted on a gauze pad and weighted. Results were calculated as milligram of tension per milligram of TSM weight (mg/mg) and expressed as an individual percentage (%) of 10 μM CCh- or 200 μM papaverine-induced tension response in PBS-treated trachea. For the control group, CCh (papaverine)-mediated responses were normalized to the mean value of the maximal responses.

[4] = test system: tracheal smooth muscle (TSM) of mouse tracheal rings; experiment: CCh-evoked force generation in cultured tracheal rings; format: cell-based; settings: FIG. 4B, 100 nM heat-inactivated or native rFIZZ1, 0.1 ng/mL LPS, PBS 100±4.82, n=6
Protocol: as §1, §2
[CCh]-response curves at the doses ranging from 3×10^−8 to 10^−5 M were completed in tracheal rings in absence and presence of either FIZZ1 or LPS (0.1 ng/mL). Concentrations of agonist were increased only when force responses to the previous concentration had stabilized. To examine TSM relaxant responses to isoprenaline (ISO), tracheal rings were first contracted by an addition of 1.0 μM CCh (Sigma, USA). Once the contraction had stabilized, ISO (Sigma, USA) was introduced into each bath at increasing concentrations (3×10^−8-10^−5 M). […] In an additional experiment, the effect of FIZZ1 protein on the CCh-mediated force response was verified using 100 nM heat-inactivated FIZZ1 (natural and recombinant FIZZ1 solution heated at 70° C. for 60 min). Their dose-response curves were obtained as above. Fresh drug solutions such as CCh and ISO were made up on the day of the experiment. Doses of the above agents refer to the final bath concentration.
as §5

[5] = test system: BAL cells; experiment: Counts of BAL cells in intranasally challenged mice; format: in vivo, mouse; settings: intranasal once a day×5 days, 100 nM rFIZZ1 or 0.1 ng/ml LPS; vs PBS-treated mice
Protocol: as §4
(§6) PBS- and OA-treated mice were sacrificed and their airways lavaged once with 1.0 mL of PBS via tracheal cannulation. An equal volume of BAL from each mouse was collected and centrifuged (1200 rpm, 5 min). Total BAL cells were counted using a hemocytometer. BAL cells ([…]) collected from each sample were applied to a glass slide using a cytospin (800 rpm, 8 min) and then the slide was stained with Hema 3 Stain Set (Fisher Scientific) for the differential count of cells. The relative proportion of different cells counted from 300 cells/slide was factored to the number of total BAL cells collected in each group.

[6] = test system: airway epithelium of cultured trachea; experiment: Histological examination of tracheal rings and airway epithelium; format: cell-based, mouse; settings: cultured overnight with FIZZ1 100 nM or LPS 0.1 ng/mL
Protocol: Histological examination of the structure of the airway and the status of the airway epithelial layer was performed in whole/sectional fresh trachea and as well as trachea cultured overnight with and without 100 nM FIZZ1. To understand the role of airway epithelium in regulating contractility of TSM, we measured the contractile response of tracheal rings after the epithelium was mechanically removed. Briefly, airway epithelial cells were removed by gently rubbing the intraluminal surface with polyethylene tubing (Becton Dickinson & Company, MD USA) connected to a Precision Glide needle (30G1/2) followed by perfusion with 1.0 ml air bubbles and then 1.0 ml K-H solution (re). All of the experimental tracheas were stained with H & E solution (CAT hematoxylin, Edgar Degas Eosin Working Solution, Biocare Medical, Concord, Calif.) and photographed under a light microscope at ×4.0 and ×20 magnification. Tracheal morphometric analysis was performed using a computer-based image analysis system consisting of a Nikon Eclipse E800 microscope (Melville, N.Y. USA) with a SPOT RT Slider camera (Diagnostic Instruments, Inc., Sterling Heights, Mich. USA).

[7] = test system: BAL cells; experiment: BAL cellular composition in OA-treated mouse model; format: in vivo; settings: OA/OA-treated mice vs PBS/PBS and OA/PBS; n=6
Protocol: (§7) Animals were divided into three groups including phosphate buffered saline (PBS)-sensitized and -challenged (PBS/PBS), OA-sensitized and PBS-challenged (OA/PBS), and OA-sensitized and -challenged mice (OA/OA). Mice were intraperitoneally injected with an equivalent volume (100 μL) of PBS or OA (20 μg) with 2.25 mg Al(OH)3 in PBS on day 0 and 14. From day 25 to 34, mice were challenged with an aerosol of PBS or OA (5% in PBS) for 30 min once a day for 10 consecutive days.
as §6

[8] = test system: TSM of tracheal rings; experiment: TSM contractile response to CCh in OA-treated mouse model; format: in vivo; settings: PBS/PBS 100±6.77, n=6
Protocol: as §7
Experimental animals were sacrificed by CO2 asphyxiation. Tracheas were surgically excised and cleaned of adherent connective tissue. Each trachea was sectioned into rings 3-4 mm in length and cultured in DMEM containing 1.0 M HEPES, 1.0 M NaOH, 5% of heat-inactivated FBS (Hy-Clone, Logan, Utah), 0.2M glutamine, 1.0 M CaCl2, 2.5 μg/ml fungizone, 5 μg/mL insulin, 100 U/mL penicillin and 100 μg/mL streptomycin) (DMEM-5%) for 24 hours. For in vitro experiments, the tracheal rings were cultured in DMEM in the absence and presence of either 10 or 100 nM recombinant FIZZ1 (Leinco Technologies, USA) for 24 hours. […]
as §3

[9] = test system: FIZZ1 mRNA; experiment: FIZZ1 mRNA expression in trachea by transcriptional profiling; format: in vivo, mouse; settings: OA/OA-treated mice over PBS/PBS- or OA/PBS-treated mice
Protocol: as §7
Three (3) groups of mice were analyzed using PBS/PBS, OA/PBS and OA/OA, with 18 animals per group. Tracheal rings from 6 animals per group were combined as replicates, to produce total RNA. […] RNA was quantified using the Nanoprop ND-1000 spectrophotometer. […] The Ovation kit utilizes the Ribo-SPIA process to linearly amplify and label, limiting amounts mRNA in a three-step process resulting in microgram quantities (Kum et al, “Novel Isothermal, Linear Nucleic Acid Amplification Systems for Highly Multiplexed Applications,” Clinical Chemistry, 2005; 51:1973-1981). Approximately 1.5 μg of purified and fragmented biotinylated cRNA, together with controls for quantitating the amount of each transcript, was hybridized to the mouse gene chip array, MOE 430—2.0 (Affymetrix) for 16-18 hours. […] Resulting signals were normalized and quantified using Gene Logic's MAS 5.0 software.

[10] = test system: FIZZ1 protein; experiment: FIZZ1 protein in BAL by Western blot; format: in vivo, mouse; settings: OA/OA-treated mice
Protocol: as §7
Protein expression levels of were examined using Western blot analysis. Briefly, aliquots (100 μg/well) of BAL supernatant and tracheal lysate were loaded onto 4-20% SDS-PAGE gel in an equal volume. Size-fractionated proteins were transferred to nitrocellulose membrane and then blocked with 5% nonfat dried milk in TBS at room temperature for 60 min. […] Immunoreactive bands were detected by chemiluminesence. Protein expression levels were evaluated in relative to expression of β-actin in the same tissue. Quantification of Western blots for phosphorylated signaling proteins was performed using ImageJ and relative band intensity was calculated as % of the intensity of the β-actin protein band.

Molecule: CC(C)NCC(O)c1ccc(O)c(O)c1 (centres unmarked) [ISO, isoprenaline, reference compound]
- TSM relaxation, level relative to the relaxation by papaverine [1]: 50%

Molecule: lipopolysaccharide [LPS, reference compound]
- changes in nitrite concentration in MTEC supernatants [2]: not obvious
- Maximal tensions (%) of TSM, CCh-evoked, fresh trachea [3]: 108.28±5.44%
- maximal responses (%) of the tracheal rings, CCh-evoked [4]: 96.40±4.31%
- number of BAL cells [5]: obvious increase
- smooth muscle layers, histology [6]: clear and histologically intact

B1: ovalbumin (protein, UniProt P01012 2-386, looked up)
Ovalbumin: GSIGAASMEFCFDVFKELKVHHANENIFYCPIAIMSALAMVYLGAKDSTRTQINKVVRFDKLPGFGDSIEAQCGTSVNVHSSLRDILNQITKPNDVYSFSLASRLYAEERYPILPEYLQCVKELYRGGLEPINFQTAADQARELINSWVESQTNGIIRNVLQPSSVDSQTAMVLVNAIVFKGLWEKAFKDEDTQAMPFRVTEQESKPVQMMYQIGLFRVASMASEKMKILELPFASGTMSMLVLLPDEVSGLEQLESIINFEKLTEWTSSNVMEERKIKVYLPRMKMEEKYNLTSVLMAMGITDVFSSSANLSGISSAESLKISQAVHAAHAEINEAGREVVGSAEAGVDAASVSEEFRADHPFLFCIKHIATNAVLFFGRCVSP
notes: allergen used to sensitize and challenge mice (OA/OA, OA/PBS groups)
- number of lymphocytes and eosinophils in the BAL [7]: markedly increased
- number of total BAL cells [7]: large increase
- contractile forces (%) of TSM to CCh ([8]; OA/OA: OA-sensitized and -challenged mice): 127.75±3.54%
- contractile forces (%) of TSM to CCh ([8]; OA/PBS: OA-sensitized and PBS-challenged mice): 105.21±2.71%
- Fc in FIZZ1 mRNA expression in trachea [9]: 1000 fold
- FIZZ1 protein in the BAL [10]: easily detected

B2: heat inactivated rFIZZ1: FIZZ1 solution heated at 70° C. for 60 min (protein, UniProt Q9EP95 24-111, looked up)
Resistin-like alpha: DETIEIIVENKVKELLANPANYPSTVTKTLSCTSVKTMNRWASCPAGMTATGCACGFACGSWEIQSGDTCNCLCLLVDWTTARCCQLS
modifications: heat inactivated
notes: FIZZ1 solution heated at 70° C. for 60 min
- maximal responses (%) of the tracheal rings, CCh-evoked [4]: 100.00±4.77%
- maximal responses (%) of the tracheal rings, CCh-evoked ([4]; listed as Heat-inactivated FIZZ1): no observable effect
